Data published in publication PMC7246762, “Peptide Interference with APP and Tau Association: Relevance to Alzheimer’s Disease Amelioration” (International Journal of Molecular Sciences, 2020).
No end group written: not given here.

Target: T1, Tau1 (19-34) peptide labelled with rhodamine (human, also: labelled with rhodamine isothiocyanate, site not given here)
T1 construct: microtubule-associated protein Tau, human, residues 19-34; also called Tau1R; source: synthetic peptide (GL Biochem Ltd.), labelled with rhodamine isothiocyanate
T1 peptide: GLGDRKDQGGYTMHQD
Assay: far-Western, overlay or dot blot; mixtures of a fluorescein-labelled (green) and a rhodamine-labelled (red) peptide spotted on a nitrocellulose membrane; yellow colour read as binding
Details: both partners purified

- binding result: binds
B1: APP1 (390-412) peptide labelled with fluorescein (peptide)
peptide: HFQKAKERLEAKHRERMSQVMRE
modifications: also: labelled with fluorescein isothiocyanate, site not given here
notes: amyloid precursor protein, human, residues 390-412; The discussion names the region as 389-411; also called APP1F; App1F; source: synthetic peptide (GL Biochem Ltd.), labelled with fluorescein isothiocyanate
